Here are results for 47 variants from the Human Domainome abundance scans (Beltran et al. 2025).

B1: Zinc finger homeobox protein 4, residues 2086 to 2141; numbered along this chain, Q86UP3 (parent)
chain: RPRTRITDDQLKILRAYFDINNSPSEEQIQEMAEKSGLSQKVIKHWFRNTLFKERQ

± gives the uncertainty stated by the source.

In this data set the parent is B1. The experiment in a line: abundance fitness (aPCA) (normalised: wild type 0, dead -1); higher = more abundant; growth selection in yeast, the domain comes from the species named. Conditions: Homo sapiens.
For RPRTRITDDQLKILRAYFDINNSPSEEQIQEMAEHSGLSQKVIKHWFRNTLFKERQ, the abundance fitness was -0.349 ± 0.14.
Then RPRTRITDDQLKILRAYFDINNSPSEEQIQEMAEISGLSQKVIKHWFRNTLFKERQ, with -0.518 ± 0.13; and RPRTRITDDQLKILRAYFDINNSPSEEQIQEMAEGSGLSQKVIKHWFRNTLFKERQ, with -0.242 ± 0.07; and RPRTRITDDQLKILRAYFDINNSPSEEQIQEMAENSGLSQKVIKHWFRNTLFKERQ, with -0.265 ± 0.11.
In the case of RPRTRITDDQLKILRAYFDINNSPSEEQIQEMAEESGLSQKVIKHWFRNTLFKERQ it was -0.215 ± 0.1; in that of RPRTRITDDQLKILRAYFDINNSPSEEQIQEMAESSGLSQKVIKHWFRNTLFKERQ, -0.192 ± 0.077; in that of RPRTRITDDQLKILRAYFDINNSPSEEQIQEMAEASGLSQKVIKHWFRNTLFKERQ, -0.247 ± 0.091.
In the case of RPRTRITDDQLKILRAYFDINNSPSEEQIQEMAEFSGLSQKVIKHWFRNTLFKERQ it was -0.415 ± 0.11; in that of RPRTRITDDQLKILRAYFDINNSPSEEQIQEMAEVSGLSQKVIKHWFRNTLFKERQ, -0.418 ± 0.078.
Consider RPRTRITDDQLKILRAYFDINNSPSEEQIQEMAEQSGLSQKVIKHWFRNTLFKERQ, for which the abundance fitness is -0.18 ± 0.098.
In the case of RPRTRITDDQLKILRAYFDINNSPSEEQIQEMAEYSGLSQKVIKHWFRNTLFKERQ it was -0.537 ± 0.15.
Then RPRTRITDDQLKILRAYFDINNSPSEEQIQEMAEWSGLSQKVIKHWFRNTLFKERQ, with -0.615 ± 0.089; and RPRTRITDDQLKILRAYFDINNSPSEEQIQEMAEPSGLSQKVIKHWFRNTLFKERQ, with -1.09 ± 0.16.
Consider RPRTRITDDQLKILRAYFDINNSPSEEQIQEMAEMSGLSQKVIKHWFRNTLFKERQ, for which the abundance fitness was -0.304 ± 0.092.
With RPRTRITDDQLKILRAYFDINNSPSEEQIQEMAELSGLSQKVIKHWFRNTLFKERQ, the abundance fitness is -0.261 ± 0.072.
Then RPRTRITDDQLKILRAYFDINNSPSEEQIQEMAEDSGLSQKVIKHWFRNTLFKERQ, with -0.375 ± 0.12.
In the case of RPRTRITDDQLKILRAYFDINNSPSEEQIQEMAECSGLSQKVIKHWFRNTLFKERQ it was -0.459 ± 0.093; in that of RPRTRITDDQLKILRAYFDINNSPSEEQIQEMAEKSGFSQKVIKHWFRNTLFKERQ, -0.793 ± 0.13; in that of RPRTRITDDQLKILRAYFDINNSPSEEQIQEMAEKSGCSQKVIKHWFRNTLFKERQ, -0.11 ± 0.11.
Then RPRTRITDDQLKILRAYFDINNSPSEEQIQEMAEKSGESQKVIKHWFRNTLFKERQ, with -0.557 ± 0.1; and RPRTRITDDQLKILRAYFDINNSPSEEQIQEMAEKSGDSQKVIKHWFRNTLFKERQ, with -0.765 ± 0.13.
Turning to RPRTRITDDQLKILRAYFDINNSPSEEQIQEMAEKSGISQKVIKHWFRNTLFKERQ, the abundance fitness was -0.217 ± 0.14.
Consider RPRTRITDDQLKILRAYFDINNSPSEEQIQEMAEKSGASQKVIKHWFRNTLFKERQ, for which the abundance fitness was -0.06 ± 0.076.
With RPRTRITDDQLKILRAYFDINNSPSEEQIQEMAEKSQLSQKVIKHWFRNTLFKERQ, the abundance fitness was -0.052 ± 0.1.
With RPRTRITDDQLKILRAYFDINNSPSEEQIQEMAEKSTLSQKVIKHWFRNTLFKERQ, the abundance fitness was -0.083 ± 0.1.
As to RPRTRITDDQLKILRAYFDINNSPSEEQIQEMAEKSVLSQKVIKHWFRNTLFKERQ, the abundance fitness was -0.378 ± 0.072.
As to RPRTRITDDQLKILRAYFDINNSPSEEQIQEMAEKSALSQKVIKHWFRNTLFKERQ, the abundance fitness is -0.164 ± 0.076.
In the case of RPRTRITDDQLKILRAYFDINNSPSEEQIQEMAEKSDLSQKVIKHWFRNTLFKERQ, the abundance fitness is -0.07 ± 0.097.
In the case of RPRTRITDDQLKILRAYFDINNSPSEEQIQEMAEKSYLSQKVIKHWFRNTLFKERQ it was -0.429 ± 0.14; in that of RPRTRITDDQLKILRAYFDINNSPSEEQIQEMAEKSILSQKVIKHWFRNTLFKERQ, -0.602 ± 0.18.
On to RPRTRITDDQLKILRAYFDINNSPSEEQIQEMAEKSCLSQKVIKHWFRNTLFKERQ, for which the abundance fitness was -0.132 ± 0.095.
Turning to RPRTRITDDQLKILRAYFDINNSPSEEQIQEMAEKSELSQKVIKHWFRNTLFKERQ, the abundance fitness was -0.092 ± 0.088.
Then RPRTRITDDQLKILRAYFDINNSPSEEQIQEMAEKSFLSQKVIKHWFRNTLFKERQ, with -0.46 ± 0.18; and RPRTRITDDQLKILRAYFDINNSPSEEQIQEMAEKSRLSQKVIKHWFRNTLFKERQ, with -0.032 ± 0.073.
Then RPRTRITDDQLKILRAYFDINNSPSEEQIQEMAEKSMLSQKVIKHWFRNTLFKERQ, with -0.06 ± 0.11; and RPRTRITDDQLKILRAYFDINNSPSEEQIQEMAEKSWLSQKVIKHWFRNTLFKERQ, with -0.535 ± 0.08; and RPRTRITDDQLKILRAYFDINNSPSEEQIQEMAEKSLLSQKVIKHWFRNTLFKERQ, with -0.014 ± 0.086.
Then RPRTRITDDQLKILRAYFDINNSPSEEQIQEMAEKSSLSQKVIKHWFRNTLFKERQ, with -0.15 ± 0.081; and RPRTRITDDQLKILRAYFDINNSPSEEQIQEMAEKSKLSQKVIKHWFRNTLFKERQ, with -0.054 ± 0.1; and RPRTRITDDQLKILRAYFDINNSPSEEQIQEMAEKSNLSQKVIKHWFRNTLFKERQ, with 0.032 ± 0.16.
In the case of RPRTRITDDQLKILRAYFDINNSPSEEQIQEMAEKSHLSQKVIKHWFRNTLFKERQ, the abundance fitness is -0.137 ± 0.15.
Then RPRTRITDDQLKILRAYFDINNSPSEEQIQEMAEKSPLSQKVIKHWFRNTLFKERQ, with -0.805 ± 0.11; and RPRTRITDDQLKILRAYFDINNSPSEEQIQEMAKKSGLSQKVIKHWFRNTLFKERQ, with -0.147 ± 0.14.
For the variant RPRTRITDDQLKILRAYFDINNSPSEEQIQEMAHKSGLSQKVIKHWFRNTLFKERQ, the abundance fitness is -0.314 ± 0.16.
Then RPRTRITDDQLKILRAYFDINNSPSEEQIQEMACKSGLSQKVIKHWFRNTLFKERQ, with -0.429 ± 0.13.
Then RPRTRITDDQLKILRAYFDINNSPSEEQIQEMALKSGLSQKVIKHWFRNTLFKERQ, with -0.054 ± 0.085; and RPRTRITDDQLKILRAYFDINNSPSEEQIQEMAVKSGLSQKVIKHWFRNTLFKERQ, with -0.037 ± 0.073.
